Article PMC11911400, “Mechanism of ASF1 engagement by CDAN1” (Nature Communications, 2025)
Blank lines part the entries; values can stand above or below the binder they belong to.

B1: Strep-tagged CDAN1 (ST-CDAN1), wildtype (natural protein, human)
chain: MAAVLESLLREEVSVAAVVRWIARSTQGSEDNAGEAAALSSLRALRKEFVPFLLNFLREQSSRVLPQGPPTPAKTPGASAALPGRPGGPPRGSRGARSQLFPPTEAQSTAAEAPLARRGGRRRGPGPARERGGRGLEEGVSGESLPGAGGRRLRGSGSPSRPSLTLSDPPNLSNLEEFPPVGSVPPGPTGTKPSRRINPTPVSEERSLSKPKTCFTSPPISCVPSSQPSALDTSPWGLGLPPGCRSLQEEREMLRKERSKQLQQSPTPTCPTPELGSPLPSRTGSLTDEPADPARVSSRQRLELVALVYSSCIAENLVPNLFLELFFVFQLLTARRMVTAKDSDPELSPAVLDSLESPLFQSIHDCVFFAVQVLECHFQVLSNLDKGTLKLLAENERLLCFSPALQGRLRAAYEGSVAKVSLVMPPSTQAVSFQPETDNRANFSSDRAFHTFKKQRDVFYEVLREWEDHHEEPGWDFEKGLGSRIRAMMGQLSAACSHSHFVRLFQKQLLQMCQSPGGAGGTVLGEAPDVLSMLGADKLGRLWRLQERLMAPQSSGGPCPPPTFPGCQGFFRDFILSASSFQFNQHLMDSLSLKIQELNGLALPQHEPNDEDGESDVDWQGERKQFAVVLLSLRLLAKFLGFVAFLPYRGPEPPPTGELQDSILALRSQVPPVLDVRTLLQRGLQARRAVLTVPWLVEFLSFADHVVPLLEYYRDIFTLLLRLHRSLVLSQESEGKMCFLNKLLLLAVLGWLFQIPTVPEDLFFLEEGPSYAFEVDTVAPEHGLDNAPVVDQQLLYTCCPYIGELRKLLASWVSGSSGRSGGFMRKITPTTTTSLGAQPSQTSQGLQAQLAQAFFHNQPPSLRRTVEFVAERIGSNCVKHIKATLVADLVRQAESLLQEQLVTQGEEGGDPAQLLEILCSQLCPHGAQALALGREFCQRKSPGAVRALLPEETPAAVLSSAENIAVGLATEKACAWLSANITALIRREVKAAVSRTLRAQGPEPAARGERRGCSRACEHHAPLPSHLISEIKDVLSLAVGPRDPDEGVSPEHLEQLLGQLGQTLRCRQFLCPPAEQHLAKCSVELASLLVADQIPILGPPAQYRLERGQARRLLHMLLSLWKEDFQGPVPLQLLLSPRNVGLLADTRPREWDLLLFLLRELVEKGLMGRMEIEACLGSLHQAQWPGDFAEELATLSNLFLAEPHLPEPQLRACELVQPNRGTVLAQS
notes: Codanin-1 (CDAN1), human, 1227 residues; cDNA from Horizon Discovery/Dharmacon, its point mutation S421F corrected; same construct used in Expi293 and in Flp-In 293 T-REx cells; dimer by SEC-MALS and cryo-EM; also called Strep-CDAN1; WT CDAN1; source: Expi293, transiently transfected, in lysate and purified in complexes (anti-FLAG, Strep-Tactin); Flp-In 293 T-REx, transiently transfected, in …
B3: FLAG-tagged CDIN1 (F-CDIN1) (natural protein, UniProt Q9Y2V0 1-281, looked up)
chain: MILTKAQYDEIAQCLVSVPPTRQSLRKLKQRFPSQSQATLLSIFSQEYQKHIKRTHAKHHTSEAIESYYQRYLNGVVKNGAAPVLLDLANEVDYAPSLMARLILERFLQEHEETPPSKSIINSMLRDPSQIPDGVLANQVYQCIVNDCCYGPLVDCIKHAIGHEHEVLLRDLLLEKNLSFLDEDQLRAKGYDKTPDFILQVPVAVEGHIIHWIESKASFGDECSHHAYLHDQFWSYWNRFGPGLVIYWYGFIQELDCNRERGILLKACFPTNIVTLCHSIA
notes: C15orf41); cDNA synthesized by IDT; source: Expi293, transiently transfected, in lysate and purified in complexes (anti-FLAG, Strep-Tactin); not shown: 3xFLAG, N-terminal, kept

Experiments:
[1] = target: the molecule itself; test: cryo-EM structure; tandem-purified C:C:A complex cross-linked with 250 µM BS3, 1 mg/mL; single-particle cryo-EM, 3.0 to 3.5 Å
[2] = target: the molecule itself; test: SEC-MALS; 200 µg of each purified complex at 5 µM on SRT SEC-300 column, PBS pH 7.4 with 1 mM DTT; DAWN HELEOS II; dn/dc 0.185
[3] = target: B3; test: cryo-EM structure; purified ST-CDAN1C:F-CDIN1 (C:C) complex, cross-linked with BS3, 0.78 mg/mL; ~6 Å reconstruction, no model built; conditions: both partners purified
[4] = target: B1; test: SEC-MALS; 200 µg of each purified complex at 5 µM on SRT SEC-300 column, PBS pH 7.4 with 1 mM DTT; DAWN HELEOS II; dn/dc 0.185; conditions: both partners purified

Binder: B1
- stoichiometry N [1]: 2
- stoichiometry N [2]: 2 CDAN1 per complex

- binding result [3]: binds
B2: Strep-CDAN1C (CDAN1 MA3 domain, residues 1008-1227) (domain or fragment, human, UniProt Q8IWY9 1008-1227, looked up)
chain: GERRGCSRACEHHAPLPSHLISEIKDVLSLAVGPRDPDEGVSPEHLEQLLGQLGQTLRCRQFLCPPAEQHLAKCSVELASLLVADQIPILGPPAQYRLERGQARRLLHMLLSLWKEDFQGPVPLQLLLSPRNVGLLADTRPREWDLLLFLLRELVEKGLMGRMEIEACLGSLHQAQWPGDFAEELATLSNLFLAEPHLPEPQLRACELVQPNRGTVLAQS
notes: also called ST-CDAN1C; CDAN1 C-term; source: Expi293, transiently transfected, purified in complex with F-CDIN1 (anti-FLAG, Strep-Tactin); not shown: 3xStrep-II-TEV, N-terminal, kept

Binder: B3
- stoichiometry N [4]: 2 CDIN1 per two CDAN1
